Measured values: paper PMC12724367 (Applied and Environmental Microbiology, 2025)

Key:
[1] = target: T1, PdG-D-LDH (Nocardiopsis eucommiae, UniProt A0A975LBX7); experiment: X-ray crystal structure of complex (soak); format: binding; conditions: 20 mM D-lactate soaked 10 min; active site, coordinated to Fe(II)
T1 construct: gene KGD82_12890; N-terminal His6 tag (pET15b), codon-optimised synthetic gene, E. coli Tuner; no tag cleavage told; homodimer (97 kDa) fraction

[2] = target: T1, PdG-D-LDH; experiment: X-ray crystal structure; HPLC of released flavin; format: binding; conditions: non-covalent, active site; co-purified
[3] = target: T1, PdG-D-LDH; experiment: product inhibition, DCIP reduction assay; format: biochemical
[4] = substrate: C[C@H](O)C(=O)O; experiment: purified protein; conditions: 0.075 mM DCIP as electron acceptor, 100 mM glycine-NaOH, pH 9, 25 °C
[5] = substrate: C[C@@H](O)C(=O)O; experiment: purified protein; conditions: 0.075 mM DCIP as electron acceptor, 100 mM glycine-NaOH, pH 9, 25 °C
[6] = substrate: O=C1C=C(S(=O)(=O)O)c2ccccc2C1=O; experiment: apparent steady-state kinetics, absorbance; format: biochemical, Nocardiopsis eucommiae; conditions: electron acceptor, 20 mM sodium D-lactate, 100 mM phosphate, pH 7.5, 25 °C
Source text: apparent steady-state kinetics, absorbance on PdG-D-LDH

[7] = substrate: O=C1C=CC(=O)C=C1; experiment: purified protein; format: biochemical, Nocardiopsis eucommiae; conditions: electron acceptor, 20 mM sodium D-lactate, 100 mM phosphate, pH 7.5, 25 °C

## C[C@@H](O)C(=O)O [D-lactate]
[1]
  X-ray crystal structure of complex (soak): a metal ion and the substrate D-lactate (in PdG-D-LDH-lactate complex) are clearly defined

## Cc1cc2nc3c(=O)[nH]c(=O)nc-3n(C[C@H](O)[C@H](O)[C@H](O)COP(=O)(O)OP(=O)(O)OC[C@H]3O[C@@H](n4cnc5c(N)ncnc54)[C@H](O)[C@@H]3O)c2cc1C [FAD]
[2]
  X-ray crystal structure; HPLC of released flavin: The structure contains a non-covalently bound FAD at the active site.

## CC(=O)C(=O)O [pyruvate]
[3]
  IC50: 53 mM

B1: PdG-D-LDH (Nocardiopsis eucommiae) (protein)
chain: MPGVVEELVAAIGTEQVVTDPAVMEGYSHDEAEWAPYGAPAAVVRPRDTADVAAVVRVCARSGVAVVGRGAGTGLSGAANSGRGWVVVSFERMNRVLEVDTVQQTATVQPGVVNDDLRARVAQDGLWYPPDPASAPWSTIGGNVATNAGGLCCVKYGVTRDYVLGMEAVVGTGEVVRLGRTTAKGVTGYDLAGLMVGSEGTLGLVTEVTLRLVPLRRGVEHTVVGYFDSLTDAGRAVAAVSAAGIVPSALELIDRFCLQAVDEWKNMGLSAEGEVLLLARSDLPGASGQEEADRILECFEQEKAVYAVRSTDKEEAEALFQARRLAYPALERLGPLLTEDVCVPKARVPHMLEAIEAAGERFDTRIGNIAHAGDGNLHPLFIVPAGDEEAKRRAKQAFEVIVDEALAVGGTVTGEHGVGLLKMRGAADELGPHVLAMHRAVKGALDPEGIFNPGKVFALEEA
notes: N-terminal His6 tag (pET15b), codon-optimised synthetic gene, E. coli Tuner; no tag cleavage told; homodimer (97 kDa) fraction
[4]
  Km: 59000 ± 5000 µM
  kcat: 4.7 s⁻¹
  kcat/Km: 79 M⁻¹ s⁻¹
[5]
  Km: 1000 ± 100 µM
  kcat: 8.2 s⁻¹
  kcat/Km: 8000 M⁻¹ s⁻¹
[6]
  Km: 80 ± 10 µM
  kcat: 0.95 ± 0.04 s⁻¹
  kcat/Km: 12000 ± 2000 M⁻¹ s⁻¹
[7]
  Km: 20 ± 10 µM
  kcat: 1.8 ± 0.1 s⁻¹
  kcat/Km: 80000 ± 30000 M⁻¹ s⁻¹
